Experimental data reported in patent US12662541B2, “Antibody-drug conjugates against the receptor tyrosine kinase EphA5” (Rutgers, The State University of New Jersey, priority 2021, dated 2026).
Where a chain is given by its changes, count along the chain named.

What was measured:
EphA5 antigen [1] = biological target: T1, EphA5 antigen (Homo sapiens, UniProt P54756); experiment: KD (M)
T1 construct: purchased R and D systems 3036-A5
Experimental: (§1) Table printed on a drawing sheet, FIG. 19
(§2) Head of the field: KD (M)
(§3) The patent's description of the figure: FIG. 19 is a table illustrating the Multi-cycle kinetic parameters of chimeric (VH0/VK0) and humanized variants (tested as purified proteins) binding to EphA5 antigen as determined using the Biacore T200. The relative KD was calculated by dividing the KD of the humanized variant by that of the VH0VK0 (first row) assayed in the same experiment. […]
(§4) Where the first naming reader finds the target: description_of_the_figure: humanized variants (tested as purified proteins) binding to EphA5 antigen as determined using the Biacore T200

EphA5 antigen [2] = biological target: T1, EphA5 antigen; experiment: ka (1/Ms)
Experimental: as §1
(§5) Head of the field: ka (1/Ms)
as §3, §4

EphA5 antigen [3] = biological target: T1, EphA5 antigen; experiment: kd (1/s)
Experimental: as §1
(§6) Head of the field: kd (1/s)
as §3, §4

rhEphA5 antigen [4] = biological target: T2, rhEphA5 antigen (Homo sapiens, UniProt P54756); experiment: KD (M)
T2 construct: purchased R and D systems 3036-A5
Experimental: (§7) Table printed on a drawing sheet, FIG. 13
as §2
(§8) The patent's description of the figure: FIG. 13 is a table illustrating the single cycle kinetic parameters of chimeric (VH0/VK0) and humanized 11C12 variants (tested as cell culture supernatants) binding to rhEphA5 antigen as determined using the Biacore T200. The relative KD was calculated by dividing the KD of the humanized variant by that of the VH0/VK0 (top row) assayed in the same experiment. The variants marked with ‘*’ have KD values that are within two-fold of, or are better than, the chimeric antibody. The chimeric and selected variants marked in ‘#’ were identified as the main leads for purification. […]
(§9) Where the first naming reader finds the target: description_of_the_figure: humanized 11C12 variants (tested as cell culture supernatants) binding to rhEphA5 antigen as determined using the Biacore T200

H226 cells (EphA5−) = experiment: Flow cytometry cell binding, H226 negative control cells; type: cell-based, human; settings: from 10 μg/ml, three-fold three point dilution
Experimental: (§10) A H460 cell line stably expressing EphA5 (provided by Rutgers) was used, alongside H226 cells as a negative control, to test for antibody binding in a flow cytometry assay. The cell lines were first assessed for target expression using 10 μg/ml of the murine 11C12 provided by Rutgers) and MolgG1 non-binging control (Biolegend, California, US). Goat anti-mouse Alexa Fluor 647 (Thermo Fisher, Loughborough, UK) was used for antibody detection.
(§11) For cell binding assays, both cell lines were resuspended in FACS buffer (PBS+1% BSA+0.1% sodium azide) and seeded in 96 well U bottom plates at 1×105 (100 μl) cells per well. The chimeric and six purified humanized variants were tested in the assay alongside the 11C12 murine positive control, MolgG1 and HulgG1 non-binding controls. Samples were prepared at a starting concentration of 10 μg/ml in FACS buffer and underwent a four-fold seven point serial dilution for testing with H460 cells and a three-fold three point serial dilution for the H226 cells. […] Median fluorescence intensity (MFI) was measured using an Attune N×T Flow Cytometer (Thermo Fisher, Loughborough, UK) and 10,000 gated events were acquired per sample. For data analysis, live cell populations were gated based on the forward and side scatter dot plot allowing the Alexa Fluor 647 MFI values to be measured in the RL1 channel.

[5] = biological target: T3, H460 cell line stably expressing EphA5 (Homo sapiens, UniProt P54756); experiment: Flow cytometry cell binding, H460 cells; type: cell-based; settings: from 10 μg/ml, four-fold seven point dilution
T3 construct: endogenous in cells; host or cells: H460 human lung carcinoma cells (provided by Rutgers)
Experimental: as §10, §11

[6] = Thermal ramp stability (UNcle biostability platform, Sypro Orange and SLS); type: physicochemical
Description: Thermal ramp stability experiments (Tm and Tagg) are well established methods for ranking proteins and formulations for stability. A protein's denaturation profile provides information about its thermal stability and represents a structural ‘fingerprint’ for assessing structural and formulation buffer modifications. A widely used measure of the thermal structural stability of a protein is the temperature at which it unfolds from the native state to a denatured state. For many proteins, this unfolding process occurs over a narrow temperature range and the mid-point of this transition is termed ‘melting temperature’ or ‘Tm’. To determine the melting temperature of a protein, UNcle measures the fluorescence of Sypro Orange (which binds to exposed hydrophobic regions of proteins) as the protein undergoes conformational changes.
Samples for each variant were formulated in PBS and Sypro Orange at a final concentration of 1 mg/mL. […] Samples were subjected to a thermal ramp from 25-95° C., with a ramp rate of 0.3° C./minute and excitation at 473 nm. Full emission spectra were collected from 250-720 nm, and the area under the curve between 510-680 nm was used to calculate the inflection points of the transition curves (Tonset and Tm). Monitoring of static light scattering (SLS) at 473 nm allowed the detection of protein aggregation, and Tagg (onset of aggregation) was calculated from the resulting SLS profiles. Thermal stability values determined lie in a broad range from 57.9 to 69.6° C. (Tm1), 55.1 to 65.2° C. (Tonset) and 65.6 to 70.2° C. (Tagg) with the humanized leads generally showing improved profiles when compared to the chimeric antibody. […] All humanized antibodies appear to have a higher Tm1, Tonset and Tagg compared to the chimeric antibody.

rhEphA5 antigen [7] = biological target: T2, rhEphA5 antigen; experiment: kd (1/s)
Experimental: as §7, §6, §8, §9

rhEphA5 antigen [8] = biological target: T2, rhEphA5 antigen; experiment: ka (1/Ms)
Experimental: as §7, §5, §8, §9

rhEphA5 antigen [9] = biological target: T2, rhEphA5 antigen; experiment: Multi-cycle kinetic analysis (Biacore T200) of purified antibodies; type: binding
Experimental: In order to assess the binding of the six lead humanized variants to rhEphA5 antigen, multi-cycle kinetic analysis (FIG. 68) was performed on purified material. Kinetic experiments were performed at 25° C. on a Biacore T200 running Biacore T200 Control software V2.0.1 and Evaluation software V3.0 (GE Healthcare, Uppsala, Sweden).
HBS-P+ (GE Healthcare, Uppsala, Sweden), supplemented with 1% BSA w/v (Sigma, Dorset, UK) was used as running buffer as well as for ligand and analyte dilutions. Purified lead antibodies were diluted to 0.5 μg/mL in running buffer and at the start of each cycle, loaded onto Fc2, Fc3 and Fc4 of an anti-human IgG CMS sensor chip (GE Healthcare, Little Chalfont, UK). Antibodies were captured at a flow rate of 10 μl/min to give an immobilization level (RL) of 50 RU. The surface was then allowed to stabilize.
Multi-cycle kinetic data was obtained using recombinant EphA5 as the analytes injected at a flow rate of 30 μl/min to minimize any potential mass transfer effects. A five point, three-fold dilution range from 1.11 nM to 270 nM of EphA5 was prepared in running buffer. For each concentration, the association phases were monitored for 210 seconds and the dissociation phase was measured for 900 seconds. Regeneration of the sensor chip surface was conducted between cycles using two injections of 3 M MgCl2. […]
Target sequence in this assay (P54756 25-573 limits assumed): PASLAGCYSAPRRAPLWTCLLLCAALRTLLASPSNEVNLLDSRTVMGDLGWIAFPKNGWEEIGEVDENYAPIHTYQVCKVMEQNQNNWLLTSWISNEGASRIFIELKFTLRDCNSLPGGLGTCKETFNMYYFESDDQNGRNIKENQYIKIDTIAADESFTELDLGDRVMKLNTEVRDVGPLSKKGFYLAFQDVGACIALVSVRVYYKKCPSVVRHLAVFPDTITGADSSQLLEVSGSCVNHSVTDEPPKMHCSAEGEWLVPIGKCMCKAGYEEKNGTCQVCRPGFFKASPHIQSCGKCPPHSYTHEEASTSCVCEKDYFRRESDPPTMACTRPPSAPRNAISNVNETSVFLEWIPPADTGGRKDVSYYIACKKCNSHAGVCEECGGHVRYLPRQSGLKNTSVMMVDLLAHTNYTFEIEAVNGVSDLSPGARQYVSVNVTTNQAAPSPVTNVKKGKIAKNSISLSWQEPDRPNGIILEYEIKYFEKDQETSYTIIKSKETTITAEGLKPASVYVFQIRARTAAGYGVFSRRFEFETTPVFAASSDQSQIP

T3 sequence (P54756 25-1037): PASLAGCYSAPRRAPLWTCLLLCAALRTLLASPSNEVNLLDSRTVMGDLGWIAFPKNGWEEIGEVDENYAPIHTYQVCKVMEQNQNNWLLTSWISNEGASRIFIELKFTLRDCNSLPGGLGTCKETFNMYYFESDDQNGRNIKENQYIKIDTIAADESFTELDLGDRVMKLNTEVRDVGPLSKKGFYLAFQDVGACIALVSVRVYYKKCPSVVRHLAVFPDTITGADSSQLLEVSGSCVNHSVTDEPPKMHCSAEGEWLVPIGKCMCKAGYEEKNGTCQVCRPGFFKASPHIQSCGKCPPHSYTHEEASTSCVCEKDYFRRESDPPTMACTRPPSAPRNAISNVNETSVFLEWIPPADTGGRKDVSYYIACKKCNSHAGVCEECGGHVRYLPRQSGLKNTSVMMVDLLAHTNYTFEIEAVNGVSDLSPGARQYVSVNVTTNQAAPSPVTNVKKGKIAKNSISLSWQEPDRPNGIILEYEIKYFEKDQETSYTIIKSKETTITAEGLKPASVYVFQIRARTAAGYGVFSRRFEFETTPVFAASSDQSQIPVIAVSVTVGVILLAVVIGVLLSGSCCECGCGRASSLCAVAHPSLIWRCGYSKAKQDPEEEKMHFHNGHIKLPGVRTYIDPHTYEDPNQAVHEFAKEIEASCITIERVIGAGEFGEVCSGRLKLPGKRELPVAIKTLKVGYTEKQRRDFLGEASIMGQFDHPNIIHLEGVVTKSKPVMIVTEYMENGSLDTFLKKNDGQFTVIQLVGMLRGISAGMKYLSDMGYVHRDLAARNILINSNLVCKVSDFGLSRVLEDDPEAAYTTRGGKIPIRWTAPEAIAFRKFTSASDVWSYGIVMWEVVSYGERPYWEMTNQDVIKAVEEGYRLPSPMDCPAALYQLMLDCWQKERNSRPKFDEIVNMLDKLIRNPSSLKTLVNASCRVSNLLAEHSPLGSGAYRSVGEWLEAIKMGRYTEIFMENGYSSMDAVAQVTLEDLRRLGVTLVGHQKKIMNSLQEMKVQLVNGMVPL

B1: VH3/VK4: humanized anti-EphA5 antibody, VH SEQ ID NO:4, VL SEQ ID NO:12; lead variant (antibody, V domains shown)
VH: EVQLVESGGGLVQPGGSLKLSCAASGFTFSTFGIHWVRQAPGKGLEWVAYISGASTTIYYADTVKGRFTISRDNSKNTLYLQMNSLRSEDTAMYYCARYGTSFPYGLDYWGQGTLVTVSS
VL: DIVMTQSPDSLAVSLGERATINCKSSQSVDYDGDSYMNWYQQKPGKAPKLLIYGASNLESGIPDRFSGSGSGTDFTLTISRLEPEDAASYYCQQSNEDPFTFGQGTKLEIK
Kd (EphA5 antigen [1]): 1.08 nM | ka (EphA5 antigen [2]): 1.31e+06 M⁻¹ s⁻¹ | kd (EphA5 antigen [3]): 0.00142 s⁻¹ | Kd (rhEphA5 antigen [4]): 0.956 nM

B2: 11C12: anti-human EphA5 monoclonal murine antibody, parental and positive control (antibody, V domains shown)
VH: B1 VH with Q3T, V5K, L18R, G42E, S75P, Y80F, N84T, L115S
VL: DIVMTQSPGSLAVSLGQRATISCKASQSVDYDGDSYMNWYQQKPGQPPKLLIYGASNLESGIPARFSGSGSGTDFTLNIHPVEEEDAASYYCQQSNEDPFTFGSGTKLEIK
binding to H226 (EphA5 negative) cells (H226 cells (EphA5−)): no binding | binding to H460 (EphA5+) cells, MFI dose response [5]: bound to the positive cell line in a concentration dependent manner

B3: VH5/VK4: humanized anti-EphA5 antibody, VH SEQ ID NO:6, VL SEQ ID NO:12; lead variant (antibody, V domains shown)
VH: B1 VH with T63S, S88A, M93V
VL: B1 VL
ka (EphA5 antigen [2]): 1.23e+06 M⁻¹ s⁻¹ | Tagg ranking among the leads (SLS profiles) [6]: highest Tagg values | kd (rhEphA5 antigen [7]): 0.00141 s⁻¹ | kd (EphA5 antigen [3]): 0.00128 s⁻¹ | ka (rhEphA5 antigen [8]): 1.35e-06 M⁻¹ s⁻¹

B4: VH4/VK4: humanized anti-EphA5 antibody, VH SEQ ID NO:5, VL SEQ ID NO:12; lead variant (antibody, V domains shown)
VH: B1 VH with S88A, M93V
VL: B1 VL
ka (EphA5 antigen [2]): 1.27e+06 M⁻¹ s⁻¹ | kd (rhEphA5 antigen [7]): 0.0014 s⁻¹ | kd (EphA5 antigen [3]): 0.00132 s⁻¹

B5: VH0/VK0: chimeric antibody with murine 11C12 variable regions (SEQ ID NO:1, 8) and human IgG1/kappa constant regions (antibody, V domains shown)
VH: B1 VH with Q3T, V5K, L18R, G42E, S75P, Y80F, N84T, L115S
VL: B2 VL
modifications: human IgG1/kappa constant regions
RMAX (rhEphA5 antigen [9]; 1:1 model fit): 47.8 | kd (rhEphA5 antigen [9]; 1:1 model, binding to EphA5): 0.0015 s⁻¹ | Average Tm2 (° C.) [6]: 65.83 °C | Average Tonset (° C.) [6]: 55.1 °C | transitions detected in thermal unfolding [6]: two transitions (Tm1 and Tm2) | Average Tm1 (° C.) ([6]; 1 mg/mL in PBS, ramp 25-95° C.): 57.9 °C | Average Tagg 473 (° C.) ([6]; SLS at 473 nm): 65.6 °C | Tm2 (° C.) ([6]; single replicate): 65.83 °C | kd (rhEphA5 antigen [7]): 0.00153 s⁻¹ | ka (rhEphA5 antigen [8]): 1.15e-06 M⁻¹ s⁻¹

B6: VH5/VK2: humanized anti-EphA5 antibody, VH SEQ ID NO:6, VL SEQ ID NO:10; lead variant (antibody, V domains shown)
VH: B1 VH with T63S, S88A, M93V
VL: B1 VL with S25A
ka (EphA5 antigen [2]): 1.34e+06 M⁻¹ s⁻¹ | kd (rhEphA5 antigen [7]): 0.00123 s⁻¹ | kd (EphA5 antigen [3]): 0.00125 s⁻¹ | ka (rhEphA5 antigen [8]): 1.38e-06 M⁻¹ s⁻¹
